For data set [1], the system named is VchCAST RNA-guided transposition machinery (E. coli BL21(DE3) host, lacZ target). In words: relative integration efficiency (T-RL orientation) vs wild-type transposon end (log2 (normalized fold change)); transposon end mutated: right end (5 bp flank + 75 bp right end); higher = more efficient transposition. An outline of the steps: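 Pools of 1549 left-end or 1849 right-end barcoded transposon variants were cloned into a pUC57 mini-transposon donor and co-transformed into E. coli BL21(DE3) with a T7-driven effector plasmid carrying a CRISPR array, tniQ-cas8-cas7-cas6 and tnsA-tnsB-tnsC. Plating used 0.1 mM IPTG at 37°C for 18 h, and input plasmids and genomic integration junctions were PCR-amplified for Illumina sequencing, with two biological output replicates and four reference barcodes. Relative integration efficiency is the log-transformed fold change of output over input barcode abundance, normalised to the reference barcodes.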

The test system is the same in data set [2]. As to the kind of experiment: relative integration efficiency (T-LR orientation) vs wild-type transposon end (log2 (normalized fold change)); transposon end mutated: right end (5 bp flank + 75 bp right end); higher = more efficient transposition. Here is the method:
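Pooled, barcoded VchCAST (Tn6677) mini-transposon donor libraries; each variable transposon-end sequence sits in a fixed pDonor mini-transposon context (10-bp barcode and cargo not included). Left- or right-end libraries were co-transformed with pEffector (TniQ-Cascade, TnsABC, lacZ crRNA, T7, 0.1 mM IPTG) into E. coli BL21(DE3) and grown 18 h at 37 C. T-LR and T-RL junction amplicons were sequenced; output/input barcode fold change was normalised to the mean of four wild-type barcodes and log2-transformed. Two biological replicates; zero-count/undetected variants carry floor values (-10 / -15), censored here. Barcode uncoupling by PCR recombination adds noise.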

± gives the standard deviation of the averaged measurements.

These results are taken from the supplement of paper PMC10201428.

On to “ACATTGGTGGATACAACCATAAAATGATAATTACACCCATAAATTGATCATTATCACACCCAATTTAACTATAACGCTCTGATCATAGTCAGACCAACATTGCTACGACCCGTATTCGCACCGACAC”, for which the results for the “relative integration efficiency (log2)” value in data set [1] and in data set [2] were -6.97 ± 0.42 and -6.549 ± 0.042, respectively.
As for “ACATTGGTTCATACAACCATAAAATGATAATTACACCCATAAATGGATAATTATCACACCCAATTTAACTATAACGCTCTGATCATAGTCAGACCAACATTGCTACGACCCGTATTCGCACCGACAC”, the “relative integration efficiency (log2)” value was -7.74 ± 0.3 in data set [1] and -5.92 ± 3.5 in data set [2].
Taken in the same sequence, the figures for “ACATTGGTTCATACAACCATAAAATGATAATTACACCCATAAATTCATAATTATCACACCCAATTTAACTATAACGCTCTGATCATAGTCAGACCAACATTGCTACGACCCGTATTCGCACCGACAC” were -6.669 ± 0.029 and -6.28 ± 2.6.
For “ACATTGGTTCATACAACCATAAAATGATAATTACACCCATAAATTCATCATTATCACACCCAATTTAACTATAACGCTCTGATCATAGTCAGACCAACATTGCTACGACCCGTATTCGCACCGACAC”, in that order: -7.13 ± 0.28 and -6.18 ± 1.9.
Taken in the same sequence, the figures for “ACATTGGTTCATACAACCATAAAATGATAATTACACCCATAAATTGATAATTATCACACCCAATTTAACTATAACGCTCTGATCATAGTCAGACCAACATTGCTACGACCCGTATTCGCACCGACAC” were -7.42 ± 0.14 and -4.38 ± 1.6.
Turning to “ACATTGGTTGATACAACCATAAAATGATAATTACACCCATAAATGGATAATTATCACACCCAATTTAACTATAACGCTCTGATCATAGTCAGACCAACATTGCTACGACCCGTATTCGCACCGACAC”, the “relative integration efficiency (log2)” value is -7.99 ± 0.69 in data set [1] and -5.61 ± 0.44 in data set [2].
For the sequence “ACATTGGTTGATACAACCATAAAATGATAATTACACCCATAAATGGATCATTATCACACCCAATTTAACTATAACGCTCTGATCATAGTCAGACCAACATTGCTACGACCCGTATTCGCACCGACAC”, the “relative integration efficiency (log2)” value was -7.55 ± 0.43 in data set [1] and -5.25 ± 0.34 in data set [2].
Taken in the same sequence, the figures for “ACATTGGTTGATACAACCATAAAATGATAATTACACCCATAAATTCATAATTATCACACCCAATTTAACTATAACGCTCTGATCATAGTCAGACCAACATTGCTACGACCCGTATTCGCACCGACAC” were -6.39 ± 0.064 and -5.532 ± 0.042.
Taken in the same sequence, the figures for “ACATTGGTTGATACAACCATAAAATGATAATTACACCCATAAATTCATCATTATCACACCCAATTTAACTATAACGCTCTGATCATAGTCAGACCAACATTGCTACGACCCGTATTCGCACCGACAC” were -7.43 ± 0.34 and -5.884 ± 0.042.
Taken in the same sequence, the figures for “ACATTGGTTGATACAACCATAAAATGATAATTACACCCATAAATTGATCATTATCACACCCAATTTAACTATAACGCTCTGATCATAGTCAGACCAACATTGCTACGACCCGTATTCGCACCGACAC” were -7.17 ± 0.13 and -6.54 ± 2.
As for “ACATTGTTTGATACAACCATAAAATGATAATTACACCCATAAATTGATAATTATCACACCCATAAATTGATATTGCCTCTGATCATAGTCAGACCAACATTGCTACGACCCGTATTCGCACCGACAC”, the “relative integration efficiency (log2)” value in data set [1] is -6.33 ± 0.24; in data set [2] it was -4.94 ± 0.3.
Taken in the same sequence, the figures for “ACATTTCATGATACAACCATAAAATGATAATTACACCCATAAATTGATAATTATCACACCCATAAATTGATATTGCCTCTGATCATAGTCAGACCAACATTGCTACGACCCGTATTCGCACCGACAC” were -4.85 ± 0.79 and -5.68 ± 0.91.
Taken in the same sequence, the figures for “ACATTTCTCGATACAACCATAAAATGATAATTACACCCATAAATGGATAATTATCACACCCAATTTAACTATAACGCTCTGATCATAGTCAGACCAACATTGCTACGACCCGTATTCGCACCGACAC” were -1.99 ± 0.23 and 0.276 ± 0.061.
Taken in the same sequence, the figures for “ACATTTCTCGATACAACCATAAAATGATAATTACACCCATAAATGGATCATTATCACACCCAATTTAACTATAACGCTCTGATCATAGTCAGACCAACATTGCTACGACCCGTATTCGCACCGACAC” were -2.3 ± 0.27 and 0.0432 ± 0.045.
“ACATTTCTCGATACAACCATAAAATGATAATTACACCCATAAATTCATAATTATCACACCCAATTTAACTATAACGCTCTGATCATAGTCAGACCAACATTGCTACGACCCGTATTCGCACCGACAC”: the “relative integration efficiency (log2)” value was -1.95 ± 0.18 in data set [1] and 0.496 ± 0.27 in data set [2].
Taken in the same sequence, the figures for “ACATTTCTCGATACAACCATAAAATGATAATTACACCCATAAATTCATCATTATCACACCCAATTTAACTATAACGCTCTGATCATAGTCAGACCAACATTGCTACGACCCGTATTCGCACCGACAC” were -3.05 ± 0.46 and 0.303 ± 0.055.
For “ACATTTCTCGATACAACCATAAAATGATAATTACACCCATAAATTGATAATTATCACACCCAATTTAACTATAACGCTCTGATCATAGTCAGACCAACATTGCTACGACCCGTATTCGCACCGACAC”, in that order: -1.57 ± 0.34 and 1 ± 0.028.
Taken in the same sequence, the figures for “ACATTTCTCGATACAACCATAAAATGATAATTACACCCATAAATTGATCATTATCACACCCAATTTAACTATAACGCTCTGATCATAGTCAGACCAACATTGCTACGACCCGTATTCGCACCGACAC” were -1.71 ± 0.54 and 1.36 ± 0.048.
For “ACATTTCTGGATACAACCATAAAATGATAATTACACCCATAAATGGATAATTATCACACCCAATTTAACTATAACGCTCTGATCATAGTCAGACCAACATTGCTACGACCCGTATTCGCACCGACAC”, the figures for the “relative integration efficiency (log2)” value in data set [1] and in data set [2] were -2.35 ± 0.26 and -0.444 ± 0.28, respectively.
Taken in the same sequence, the figures for “ACATTTCTGGATACAACCATAAAATGATAATTACACCCATAAATGGATCATTATCACACCCAATTTAACTATAACGCTCTGATCATAGTCAGACCAACATTGCTACGACCCGTATTCGCACCGACAC” were -3.09 ± 0.37 and -0.629 ± 0.35.
Taken in the same sequence, the figures for “ACATTTCTGGATACAACCATAAAATGATAATTACACCCATAAATTCATAATTATCACACCCAATTTAACTATAACGCTCTGATCATAGTCAGACCAACATTGCTACGACCCGTATTCGCACCGACAC” were -3.39 ± 0.26 and -0.65 ± 0.075.
For “ACATTTCTGGATACAACCATAAAATGATAATTACACCCATAAATTCATCATTATCACACCCAATTTAACTATAACGCTCTGATCATAGTCAGACCAACATTGCTACGACCCGTATTCGCACCGACAC”, in that order: -3.59 ± 0.54 and -0.104 ± 0.069.
Regarding “ACATTTCTGGATACAACCATAAAATGATAATTACACCCATAAATTGATAATTATCACACCCAATTTAACTATAACGCTCTGATCATAGTCAGACCAACATTGCTACGACCCGTATTCGCACCGACAC”, the entries for the “relative integration efficiency (log2)” value in data set [1] and in data set [2] were -1.94 ± 0.42 and 0.495 ± 0.035, respectively.
As for “ACATTTCTGGATACAACCATAAAATGATAATTACACCCATAAATTGATCATTATCACACCCAATTTAACTATAACGCTCTGATCATAGTCAGACCAACATTGCTACGACCCGTATTCGCACCGACAC”, the “relative integration efficiency (log2)” value is -2.77 ± 0.4 in data set [1] and 0.307 ± 0.3 in data set [2].
Taken in the same sequence, the figures for “ACATTTCTTCATACAACCATAAAATGATAATTACACCCATAAATGGATAATTATCACACCCAATTTAACTATAACGCTCTGATCATAGTCAGACCAACATTGCTACGACCCGTATTCGCACCGACAC” were -4.17 ± 0.17 and -2.86 ± 0.049.
As for “ACATTTCTTCATACAACCATAAAATGATAATTACACCCATAAATGGATCATTATCACACCCAATTTAACTATAACGCTCTGATCATAGTCAGACCAACATTGCTACGACCCGTATTCGCACCGACAC”, the “relative integration efficiency (log2)” value in data set [1] is -4.65 ± 0.36; in data set [2], -3.69 ± 0.99.
Taken in the same sequence, the figures for “ACATTTCTTCATACAACCATAAAATGATAATTACACCCATAAATTCATAATTATCACACCCAATTTAACTATAACGCTCTGATCATAGTCAGACCAACATTGCTACGACCCGTATTCGCACCGACAC” were -5.24 ± 0.61 and -3.54 ± 2.7.
Taken in the same sequence, the figures for “ACATTTCTTCATACAACCATAAAATGATAATTACACCCATAAATTCATCATTATCACACCCAATTTAACTATAACGCTCTGATCATAGTCAGACCAACATTGCTACGACCCGTATTCGCACCGACAC” were -4.8 ± 0.27 and -3.38 ± 0.49.
For “ACATTTCTTCATACAACCATAAAATGATAATTACACCCATAAATTGATAATTATCACACCCAATTTAACTATAACGCTCTGATCATAGTCAGACCAACATTGCTACGACCCGTATTCGCACCGACAC”, in that order: -3.68 ± 0.52 and -2.1 ± 0.57.
As to “ACATTTCTTCATACAACCATAAAATGATAATTACACCCATAAATTGATCATTATCACACCCAATTTAACTATAACGCTCTGATCATAGTCAGACCAACATTGCTACGACCCGTATTCGCACCGACAC”, the results for the “relative integration efficiency (log2)” value in data set [1] and in data set [2] were -4.44 ± 0.65 and -3.3 ± 0.16, respectively.
For “ACATTTCTTGATACAACCATAAAATGATAATTACACCCATAAATGGATAATTATCACACCCAATTTAACTATAACGCTCTGATCATAGTCAGACCAACATTGCTACGACCCGTATTCGCACCGACAC”, in that order: -2 ± 0.23 and 0.0926 ± 0.35.
